# Laboratory results published in US20160052996A1 (NEURIMMUNE, published 2016).
# Target: T1, JCV VP1 VLP (JC virus (JCV), Mad-1 strain, UniProt P03089 1-354)
# T1 construct: also called JCV VP1 VLPs; JCV VP1 (coating with reassociation buffer)
# Assay: direct ELISA
row,Binder,EC50 [nM]
1,"NI-307.6A2 (antibody, V domains shown) VH: QVQLQESGPGLVKPSETLSLTCAVSGGSVSSSYWYSWVRQLPGKGLEWIGEIFHTGDTNYNPSLESRVTISIDTSKNQLSLDVTSATAADTAVYYCARDYCTDSGCDSDALDVWGHGTMVTVSS VL: QSALTQPASVSGSPGQSITISCTGTTKDVGNYNLVSWYQQHPGKAPRLVIYEVSERPSGVSNRFSGSKSGNTASLTISGLQAEDEADYHCCSYAGSGTSVFGGGTKVTVL",1.39
2,"NI-307.24F3 (antibody, V domains shown) VH: QVQLQESGGGVVQPGRSLRLSCAASGFSFNRYGMHWVRQAPGKGLEWLAVISNDGVNTHYADSVKGRFTISRDNSKSTLYLQASSLRVEDTAVYYCAGYYYGSGTSLFFYWGQGTLVTVSS VL: EIVLTQSPDSLAVSLGERATINCKSSQTVLYSSNNQNYLAWYQQKPGQPPKLLLYWASTRESGVPDRFSGSGSGTDFTLTISSLQPEDVAVYYCQQYYTAPYTFGQGTKVEIK",6.95
3,"NI-307.19F10 (antibody, V domains shown) VH: EVQLVESGGGLVQPGGSVSLSCAASGFTFPVYWMHWVRQAPEKGLMWVSRISPDGTIVDYAGSVKGRFTVSRDNAKNILYLQIQRLTAEDTAVYFCTKDFDVASGFWGQGTLVTVSS VL: QSALTQPPSASGSPGQSVTISCTGSKSDVGTCHFVSWYQQHPGKVPKLVIYEGNKRPSGVPDRFSASKSGNTASLTISGLQPGDEADYYCSTCAGPNNYVFGTGTKVTVL",3.41
4,"NI-307.3G4 (antibody, V domains shown) VH: QVQLVQSGAELKKPGAAVKVSCQASGYNFLSYGINWVRQIPGQGLQWLGWISTYDGTMNYDQKPDNRVTVTTDTSSSTVYLELRGLRSDDTGVYYCVRDRCAGAGCSHSLGYWGQGTLVTVSS VL: DIQMTQSPSALSASVGDRVTISCRASQNINTQLNWYQEKPGKAPELLIYGAFNLQSGAPSTFSGSGSGTDFTLTITSLQPEDFASYYCQQGFHAPYTFGRGTKVDIK",28.2

# Target: T2, BSA (Sigma-Aldrich) (bovine, UniProt P02769 25-607)
# T2 construct: also called bovine serum albumin
# Assay: direct ELISA
# T2 sequence (P02769 25-607 limits assumed): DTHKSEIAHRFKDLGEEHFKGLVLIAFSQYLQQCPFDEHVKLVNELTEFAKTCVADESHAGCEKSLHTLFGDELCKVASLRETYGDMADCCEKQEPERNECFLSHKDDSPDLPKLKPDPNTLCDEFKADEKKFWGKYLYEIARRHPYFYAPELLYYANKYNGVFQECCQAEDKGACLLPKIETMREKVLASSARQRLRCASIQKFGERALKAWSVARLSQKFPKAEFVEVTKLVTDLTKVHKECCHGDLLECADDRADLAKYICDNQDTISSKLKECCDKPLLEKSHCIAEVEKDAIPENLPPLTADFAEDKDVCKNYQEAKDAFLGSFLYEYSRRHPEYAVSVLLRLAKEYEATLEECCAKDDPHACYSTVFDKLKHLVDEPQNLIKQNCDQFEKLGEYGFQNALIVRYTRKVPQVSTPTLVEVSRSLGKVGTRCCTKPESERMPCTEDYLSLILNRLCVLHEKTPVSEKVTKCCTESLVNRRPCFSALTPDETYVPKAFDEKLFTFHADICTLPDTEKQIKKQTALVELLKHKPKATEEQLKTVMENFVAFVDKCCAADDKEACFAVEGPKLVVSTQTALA
row,Binder,binding result
1,"NI-307.6A2 (antibody, V domains shown) VH: QVQLQESGPGLVKPSETLSLTCAVSGGSVSSSYWYSWVRQLPGKGLEWIGEIFHTGDTNYNPSLESRVTISIDTSKNQLSLDVTSATAADTAVYYCARDYCTDSGCDSDALDVWGHGTMVTVSS VL: QSALTQPASVSGSPGQSITISCTGTTKDVGNYNLVSWYQQHPGKAPRLVIYEVSERPSGVSNRFSGSKSGNTASLTISGLQAEDEADYHCCSYAGSGTSVFGGGTKVTVL",no binding
2,"NI-307.19F10 (antibody, V domains shown) VH: EVQLVESGGGLVQPGGSVSLSCAASGFTFPVYWMHWVRQAPEKGLMWVSRISPDGTIVDYAGSVKGRFTVSRDNAKNILYLQIQRLTAEDTAVYFCTKDFDVASGFWGQGTLVTVSS VL: QSALTQPPSASGSPGQSVTISCTGSKSDVGTCHFVSWYQQHPGKVPKLVIYEGNKRPSGVPDRFSASKSGNTASLTISGLQPGDEADYYCSTCAGPNNYVFGTGTKVTVL",no binding
3,"NI-307.3G4 (antibody, V domains shown) VH: QVQLVQSGAELKKPGAAVKVSCQASGYNFLSYGINWVRQIPGQGLQWLGWISTYDGTMNYDQKPDNRVTVTTDTSSSTVYLELRGLRSDDTGVYYCVRDRCAGAGCSHSLGYWGQGTLVTVSS VL: DIQMTQSPSALSASVGDRVTISCRASQNINTQLNWYQEKPGKAPELLIYGAFNLQSGAPSTFSGSGSGTDFTLTITSLQPEDFASYYCQQGFHAPYTFGRGTKVDIK",no binding
4,"NI-307.20F5 (antibody, V domains shown) VH: EVQLVESGGGVVQPGTSLRLSCAASGFSFNKYGVHWVRQAPGKGLEWVANIWYDGTNPFYADFVKGRFVISRDTSKNTIYLQMNRLRAEDTAVYYCARDAFCGGDCYGGLLHGLDVWGQGTTVTVSS VL: DVVMTQSPLSLPVTPGEPASISCRSSQSLLHSNGLNYLDWYLQKPGQSPQLLIYLGSNRAPGVPDRFSGSGSGTDFTLKISRVEAEDVGVYYCLQALQTPAFGQGTKVEIK",no binding

# Target: T1, JCV VP1 VLP
# Assay: direct ELISA, plate coated with antigen at 5 µg/ml in reassociation buffer (VLP); EC50 by non-linear regression (GraphPad Prism)
row,Binder,EC50 [nM]
1,"NI-307.72F10 (antibody, V domains shown) VH: EVQLVESGGGVVQPGRSLRLSCATSGFTFDDYAMHWVRQAPGKGLEWVSGLTWSSSGVGYADSVKGRFTISRDNAKNSLYLQMNSLRAEDTALYYCAKGSGEWLRLGQDYWGQGTLVTVSS VL: QSVLTQPPSVSGTPGQRVTISCTGSSSNIGAGYDVHWYQQLPGTAPKLLIYDNSNRPSGVPDRFSGSKSGTSASLAITGLQAEDEAHYYCQSFDSSLSGSVFGGGTKLAVL",0.031
2,"NI-307.105A6 (antibody, V domains shown) VH: EVQLVESGGGLVQPGRSLRLSCAASGFTFDDYAMHWVRQAPGKGLEWVSGITWNSGSIGYADSVKGRFTISRDNAKNSLYLQMNSLSAEDTALYYCAKGARDYLSYGMDVWGQGTTVTVSS VL: QSVVTQPPSVSGAPGQRVTISCTGSSSNIGAGYDVHWYQQLPGTAPKLLIFSNTIRPSGVPDRFSGSKSGTSASLAITGLQAEDEANYYCQSYDSSLSGSVFGGGTKLTVL",0.069
3,"NI-307.26A3 (antibody, V domains shown) VH: EVQLVESGGVLVQPGGSLRLSCAASGFTFSSYAMTWVRQAPEKGLEWVSTIIGNGAYTYYADSVKGRFTISRDNSKNTLILQMNSLRADDAAVYYCAKGTELAPYYYYFALDVWGQGTTVTVSS VL: EIVLTQSPGTLSLSPGERATLSCRASQSISSSHLAWYQQKPGQAPRLLIYGASSRATGIPDRFSGGGSGTDFTLTITRLEPEDFAVYYCQQYGSSPYTFGQGTKLEIK",0.049
4,"NI-307.57D4 (antibody, V domains shown) VH: EVQLVESGGGLVQPGRSLRLSCAASGFTFDHYAMHWVRQVPGRGLEWVSGVTWNSGIIGYADSVKGRFTISRDNAKNSLYLQMTSLRAEDTALYYCAKGTNDFVSYGLDVWGQGTTVTVSS VL: QSVLTQPPSVSGAPGQRVSISCTGTSSNLGAGFDVHWYQQIPRKAPELLIYGNSIRPSGVPDRFSGSKSGTSASLAITGLQAEDEADYYCQSYDSRLSGSVFGGGTKLTVL",0.053
5,"NI-307.27C2 (antibody, V domains shown) VH: EVQLVESGGGLVKPGGSLRLSCAASGFTFSSYTMNWVRQAPGKGLQWVSSISSSSTYMYYGDSVKGRFTISRDNARNSLYLQMNSLRVEDTAVYYCARYAHDWNVDYWGQGTLVTVSS VL: QSVLTQPPSASGTPGQRVTISCSGGSSNIGSNPVNWFQQFPGTAPKLLIYANTQRPSGVPDRFSGSKSGTSVSLAISGLQSEDEGDYHCAAWDDSLKGWVFGGGTKLTVL",0.052
6,"NI-307.56A8 (antibody, V domains shown) VH: EVQLVESGGGLVKPGGSLRLSCAASGFTFSSYRMNWVRQAPGKGLEWVSSISSSSSYIYYGDSVKGRFTISRDNAKNSLYLQMSSLRAEDTAVYYCARYAHDWNIDYWGQGTLVTVSS VL: not shown",0.041
7,"NI-307.47B11 (antibody, V domains shown) VH: EVQLVESGGGLVKPGGSLRLSCAASGFTFSDYYMNWIRQAPGKGLEWLSCISSSGNTIYYADSVKGRFTISRDNAKNSLYLQMNSLRAEDTAVYYCARDLDKAATGRPYFDYWGQGTLVTVSS VL: not shown",0.048
8,"NI-307.72F7 (antibody, V domains shown) VH: EVQLVESGGGLVQPGGSLRLSCAASGFTFSSYEMNWVRQAPGKGLEWISYISSRGSTIHYADSVKGRFTISRDDAKNSLYLQMNSLRAEDTAIYYCARDRYDFWSGCIKGCYYGMDVWGQGSTVTVSS VL: EIVLTQSPGTLSLSPGQRATLSCRASQSISSSYLAWYQQRRGQAPRLLIYGASSRATGIPDRFSGSGSGTDFTLTISRLEPEDFAVYYCQHYGTTLTFGQGTKVDIK",0.019
9,"NI-307.29B1 (antibody, V domains shown) VH: EVQLVESGGGLVKPGGSLRLSCAASGITFQYYAMNWVRQAPGKGLEWVSSIGGRGDTTYYTDSVKGRFTISRDNSKSTLYLQMNSLRAEDTAVYYCAKEPFDSSGDHRGVFDYWGQGTLVTVSS VL: QSVVTQPPSVSGAPGQRVTISCAGSRSNIGAGYDVNWYQQLPRTAPKLLIYDNTRRPSGVPARFSGSKSGSSASLTITGLQAEDEADYYCQSYDSKLNKVFGGGTKLTVL",0.076
10,"NI-307.59A7 (antibody, V domains shown) VH: EVQLVESGGGLVQPGGSLRLSCAASGFTFSSYEMNWVRQAPGKGLEWVSYISSSGTNIYHADSVKGRFTISRDNAKNSLYLQMNSLRAEDTAVYYCARDGPSPRGHNYGHDYWGQGTLVTVSS VL: not shown",0.066
11,"NI-307.45E10 (antibody, V domains shown) VH: EVQLVESGGGLVQPGGSLRLSCAASGFSFRFYAMNWVRQAPGKGLEYVSGISGGGGTTYYADSVKGRFTISRDNSKNTLYLQMKSLRAEDTAIYYCAKDQSYCSGAGCHPYYLDYWGQGTLVTVSS VL: SYVLTQPPSVSVAPGQTARITCGGNNIGSKSVHWYQQKPGQAPVVVVYDDSGRPSGMPERFSGSNSGNTATLTISRVEAGDEADYYCQVWDSSSDHLYVFGTGTKVTVL",0.024
12,"NI-307.105C7 (antibody, V domains shown) VH: EVQLVESGGGLVQPGGSLRLSCAASGFSFGFYAMNWVRQAPGKGLEYVSGVSGGGGSTYYADSVKGRFTISRDNSKNTLYLQMKSLRAEDTAIYYCAKDQSYCSGGSCHPYYLDYWGQGTLVTVSS VL: SYVLTQPPSVSVAPGQTARITCGGNNIGSKSVHWYQQKPGQAPVVVVYDDSGRPSGIPERFSGSNSGNTATLTISRVEAGDEADYYCQVWDSSSDHPYVFGTGTKVTVL",0.04
13,"NI-307.98H1 (antibody, V domains shown) VH: QLQLQESGPGLVKPSQTLSLTCAVSGASISSGTYYWGWIRQHPGKGLEWIGYIYPSGSTYYNPSLKSRVIISLDTSKSQFSLNLSSVTAADTAVYYCARDYYDSSGHMGGYYHYAMDVWGQGTTVTVSS VL: DIQLTQSPSSLSASVGDRVTITCRASQSISSHLNWYQQKPGKVPKLLIYAASTLQSGVPSRFSGSGSGTDFTLAISSLQPADFATYYCQQSYSTPRTFGQGTKVDIK",0.086
14,"NI-307.53B11 (antibody, V domains shown) VH: EVQLVQSGAEVKKPGESLKISCKGSGYSFTSYWIGWVRQMPGKGLEWMGIIYPGDSDTRYSPSFQGQVTISADKSITTAYLQWSSLKASDTALYYCARRGSGSFSNYDFWGQGTLVTVSS VL: QSALTQPRSVSGSPGQSVTISCTGTSSDVGAYNYVSWYQQHPVKAPKLMIYDVSKRPSGVPDRFSGSRSGNTASLTISGLQADDEADYYCCSYAGTYTVLFGGGTKLTVL",0.064
15,"NI-307.27C11 (antibody, V domains shown) VH: QVQLQESGPGLVKPSGTLSLTCAVSGDSISSSNWWSWVRQPPGKGLEWIGEIYHSGGTKYNPSLKSRVTISVDKSKNHFSLKLRSVTAADTAVYYCARNRWFDNNRGGYYYYGMDVWGQGTTVTVSS VL: DIQMTQSPSSLSASVGDRVTITCRASQGISSYLNWYQQKPGKAPKLLISATSDLQSGVPSRFSGSGSGTDFTLTISSLQPEDFATYYCQQSYSTPYTFGQGTKLEIK",0.042
16,"NI-307.50H4 (antibody, V domains shown) VH: QVQLQESGPGLVKPSGTLSLTCAVSGDSISSSNWWSWVRQPPGKRLEWIGEIYHSGGTKYNPSLKSRVTISVDKSKNHFSLKLRSVTAADTAVYYCARNRWFDNNRGGYYYYGMDVWGQGTMVTVSS VL: DIQMTQSPSSLSASVGDRVTITCRAGQGISTYLNWYQQKPGKAPNLLIYATSDLQSGVPSRFSGSGSGTDFTLTISSLQPEDFATYYCQQSYNNPYTFGQGTKVEIK",0.055
17,"NI-307.43E8 (antibody, V domains shown) VH: EVQLVESGGDVVQPGRSLRLSCAASGFAFSIYAMNWVRQAPGKGLEWVALISTSGTEHYADSVKGRFTISRDNSKNTLFLQINSLRVEDTAVYYCARDLDSTGYYENNYWGQGTLVTVSS VL: DVVMTQSPLSSPVSLGQPASISCRSSHSLVHSNGDTYLSWLQQRPGQPPRLLIYKISNRFSGVPDRFSGSGAGTDFTLKISRVEAEDVGVYFCMQATSFPRTFGQGTKVEIK",0.64
